Changes are numbered by the printed parent chain. Numbers in names are those of the source.
B1: E2 glycoprotein expressed from pE1E2 Δ23 (HVR2 and igVR deletions) (other)
chain: ETHVTGGNAGRTTAGLVGLLTPGAKQNIQLINTNGSWHINSTALNCNESLNTGWLAGLFYQHKFNSSGCPERLASCGSSGCWHYPPRPCGIVPAKSVCGPVYCFTPSPVVVGTTDRSGAPTYSWGANDTDVFVLNNTRPPLGNWFGCTWMNSTGFTKVCGAPPCGSSGCPTDCFRKHPEATYSRCGSGPWITPRCMVDYPYRLWHYPCTINYTIFKVRMYVGGVEHRLEAACNWTRGERCDLEDRDRSELSPLLLSTTQWQVLPCSFTTLPALSTGLIHLHQNIVDVQYLYGVGSSIASWAIKWEYVVLLFLLLADARVCSCLWMMLLISQAEA
notes: also called HVR2+igVR
B2: E2Δ3-his mature protein (other)
chain: ETHVTGGNAGRTTAGLVGLLTPGAKQNIQLINTNGSWHINSTALNCNESLNTGWLAGLFYQHKFNSSGCPERLASCRRLTDFAQGWGPISYANGSGLDERPYCWHYPPRPCGIVPAKSVCGPVYCFTPSPVVVGTTDRSGAPTYSWGANDTDVFVLNNTRPPLGNWFGCTWMNSTGFTKVCGAPPCGSSGCPTDCFRKHPEATYSRCGSGPWITPRCMVDYPYRLWHYPCTINYTIFKVRMYVGGVEHRLEAACNWTRGERCDLEDRDRSEHHHHHH
B3: E2Δ2-his mature protein (other)
chain: ETHVTGGNAGRTTAGLVGLLTPGAKQNIQLINTNGSWHINSTALNCNESLNTGWLAGLFYQHKFNSSGCPERLASCGSSGCWHYPPRPCGIVPAKSVCGPVYCFTPSPVVVGTTDRSGAPTYSWGANDTDVFVLNNTRPPLGNWFGCTWMNSTGFTKVCGAPPCVIGGVGNNTLLCPTDCFRKHPEATYSRCGSGPWITPRCMVDYPYRLWHYPCTINYTIFKVRMYVGGVEHRLEAACNWTRGERCDLEDRDRSEHHHHHH
B4: E2-his mature protein (wild type, residues 384-661, strain H77c) (other)
chain: ETHVTGGNAGRTTAGLVGLLTPGAKQNIQLINTNGSWHINSTALNCNESLNTGWLAGLFYQHKFNSSGCPERLASCRRLTDFAQGWGPISYANGSGLDERPYCWHYPPRPCGIVPAKSVCGPVYCFTPSPVVVGTTDRSGAPTYSWGANDTDVFVLNNTRPPLGNWFGCTWMNSTGFTKVCGAPPCVIGGVGNNTLLCPTDCFRKHPEATYSRCGSGPWITPRCMVDYPYRLWHYPCTINYTIFKVRMYVGGVEHRLEAACNWTRGERCDLEDRDRSEHHHHHH
B5: E2Δ23-his mature protein (other)
chain: ETHVTGGNAGRTTAGLVGLLTPGAKQNIQLINTNGSWHINSTALNCNESLNTGWLAGLFYQHKFNSSGCPERLASCGSSGCWHYPPRPCGIVPAKSVCGPVYCFTPSPVVVGTTDRSGAPTYSWGANDTDVFVLNNTRPPLGNWFGCTWMNSTGFTKVCGAPPCGSSGCPTDCFRKHPEATYSRCGSGPWITPRCMVDYPYRLWHYPCTINYTIFKVRMYVGGVEHRLEAACNWTRGERCDLEDRDRSEHHHHHH
B6: CD81 MBP-LEL containing the F186S mutation (receptor)
chain: FVNKDQIAKDVKQFYDQALQQAVVDDDANNAKAVVKTFHETLDCCGSSTLTALTTSVLKNNLCPSGSNIISNLSKEDCHQKIDDLFSGK

What was measured:
[1] = target: T1, CD81 MBP-LEL (maltose-binding protein fused to the CD81 large extracellular loop, residues 113-201) (human, UniProt P60033 113-201); assay: CD81 MBP-LEL solid-phase assay, intracellular E2
T1 construct: range 113-201
T1 sequence: B6 chain with S74F

[2] = target: B6; assay: MBP-LEL ELISA, H53 detection
[3] = target: T1, CD81 MBP-LEL (maltose-binding protein …); assay: CD81 MBP-LEL ELISA, purified E2-his proteins, H53 detection
E2Δ12-his mature protein = E2Δ12-his mature protein (hepatitis C virus H77c, UniProt P27958 409-661); assay: MBP-LEL ELISA, H53 detection

| Binder | binding result [1] | binding result [2] | binding result [3] | binding result (E2Δ12-his mature protein) |
| --- | --- | --- | --- | --- |
| B1 | binds | – | – | – |
| B2 | – | no binding | binds | – |
| B3 | – | no binding | – | – |
| B4 | – | no binding | binds | – |
| B5 | – | no binding | binds | – |
| B6 | – | – | – | no binding |
